Data published in PMC2683891.

Tests used:
Experiment in all cases: purified protein
Assay type in all cases: biochemical, Campylobacter jejuni
Conditions in all cases: 100 mM HEPES pH 7.5, 200 mM KCl, 1.8 mM DTNB, 25 °C
purified protein [1] = substrate: CCCC(=O)SCCNC(=O)CCNC(=O)[C@H](O)C(C)(C)COP(=O)(O)OP(=O)(O)OC[C@H]1O[C@@H](n2cnc3c(N)ncnc32)[C@H](O)[C@@H]1OP(=O)(O)O
purified protein [2] = substrate: CCCCCC(=O)SCCNC(=O)CCNC(=O)[C@H](O)C(C)(C)COP(=O)(O)OP(=O)(O)OC[C@H]1O[C@@H](n2cnc3c(N)ncnc32)[C@H](O)[C@@H]1OP(=O)(O)O
purified protein [3] = substrate: CCCCCCCCCCCC(=O)SCCNC(=O)CCNC(=O)[C@H](O)C(C)(C)COP(=O)(O)OP(=O)(O)OC[C@H]1O[C@@H](n2cnc3c(N)ncnc32)[C@H](O)[C@@H]1OP(=O)(O)O
purified protein [4] = substrate: CCCCCCCCCCCCCCCC(=O)SCCNC(=O)CCNC(=O)[C@H](O)C(C)(C)COP(=O)(O)OP(=O)(O)OC[C@H]1O[C@@H](n2cnc3c(N)ncnc32)[C@H](O)[C@@H]1OP(=O)(O)O

B1: Cj0915 (Campylobacter jejuni subsp. jejuni NCTC 11168 = ATCC 700819) (protein)
chain: MRDMGEPKLKIVAMPSDTNPAGNIFGGWILSQIDLAGAIAARELSPERVVTISMDKVVFKEPVFIGDIISCYSKVVNVGNTSISVEVEVTAQRVDSQGCTSCINVTSALVTYVSVTRDGKKNPISEELKRIHGFLNA
With B1 the Km (purified protein [1]) was 40.8 ± 10.3 µM, the Vmax (purified protein [1]) was 55 µmol/min/mg and the kcat (purified protein [1]) was 13.6 ± 1.3 s⁻¹. For the same protein, the kcat/Km (purified protein [1]) was 330000 M⁻¹ s⁻¹, the Km (purified protein [2]) was 39.3 ± 15.2 µM and the Vmax (purified protein [2]) was 54.3 µmol/min/mg. For the same protein, the kcat (purified protein [2]) was 13.4 ± 2 s⁻¹, the kcat/Km (purified protein [2]) was 340000 M⁻¹ s⁻¹ and the Km (purified protein [3]) was 13.9 ± 1.4 µM. It also gave a Vmax (purified protein [3]) of 63.3 µmol/min/mg, a kcat (purified protein [3]) of 15.6 ± 0.7 s⁻¹ and a kcat/Km (purified protein [3]) of 1.1e+06 M⁻¹ s⁻¹. It also gave a Km (purified protein [4]) of 10.6 ± 0.6 µM, a Vmax (purified protein [4]) of 38.9 µmol/min/mg and a kcat (purified protein [4]) of 9.6 ± 0.3 s⁻¹. The kcat/Km (purified protein [4]) was 910000 M⁻¹ s⁻¹.
